From patent publication US20060058253, “Methods to reprogram splice site selection in pre-messenger rnas” (published 2006)

Key:
Settings in all cases: tags: GST
[1] = biological target: T1, UP1 (shortened hnRNP A1), GST fusion (UniProt P09651 P09651:1-196); assay: EMSA
[2] = biological target: T1, UP1 (shortened hnRNP A1), GST fusion; assay: EMSA; best UP1 binder (printed X4-A1W)
[3] = biological target: T1, UP1 (shortened hnRNP A1), GST fusion; assay: EMSA; text prints X-M4A1W as non-binder, evidently X-M4A1M
[4] = biological target: T1, UP1 (shortened hnRNP A1), GST fusion; assay: EMSA; remark: listed apart in the source
Experimental: (§1) A shortened version of recombinant hnRNP A1 (GST-UP1) was used for testing binding affinity. Each labeled oligo was incubated with increasing amounts of GST-UP1 (0.5 and 1 μg). The TS10 oligo is a telomeric DNA oligo of 60 nt containing nine high-affinity A1 binding sites. Complexes were fractionated in a 5% acrylamide gel. The position of the free oligos and complexes is shown. (C) Pre-mRNAs were incubated in a HeLa extract for 2 hours in the presence of increasing amounts of oligonucleotides (0.01, 0.02, 0.05, 0.1, 0.5 pmoles in 12.5 μl reaction). The RNA was extracted and fractionated on a denaturing 11% acrylamide gel. The position of the pre-mRNAs, splicing intermediates and products is indicated. (D) Based on the results obtained in panel C, the relative use of proximal and distal splicing was compiled, expressed as a ratio of percentages and plotted relative to the amount of oligo used. (E) Labeled pre-mRNAs were incubated as above in the presence of increasing amounts of oligonucleotides (0.01, 0.02, 0.05, 0.1, 0.5 pmoles in 12.5 μl reaction). The RNA was extracted and fractionated on a denaturing 11% acrylamide gel. The position of the pre-mRNAs, splicing intermediates and products is indicated. (F) Labeled pre-mRNAs were incubated with increasing amounts of oligonucleotides (0.01, 0.02, 0.05, 0.1, 0.5 pmoles in 12.5 μl reaction). […]

[5] = biological target: T1, UP1 (shortened hnRNP A1), GST fusion; assay: EMSA; best binder; 0.5 and 1 ug GST-UP1
Experimental: as §1

T1 sequence (P09651 1-196, one chain of several): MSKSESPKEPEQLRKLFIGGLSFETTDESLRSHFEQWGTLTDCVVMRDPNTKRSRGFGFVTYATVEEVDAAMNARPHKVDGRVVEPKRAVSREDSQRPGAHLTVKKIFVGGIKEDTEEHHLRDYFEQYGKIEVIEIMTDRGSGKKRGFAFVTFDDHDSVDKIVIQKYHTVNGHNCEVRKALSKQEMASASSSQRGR

UUCUUACCCAGCCGCCGUUC (ssRNA, 2'-OMe) [X-5]: no binding [1].

UAUGAUAGGGACUUAGGGUGGCCGCCGUUCUCCUGGAUCC (ssRNA, 2'-OMe) [X-M4A1W]: binds [2].

UAUGAUACGCACUUACGCUGGCCGCCGUUCUCCUGGAUCC (ssRNA, 2'-OMe) [X-M4A1M]: no binding [3].

UACCACCGCCAAAGCCGCCU (ssRNA) [C5-M4]: no binding [4].

GCCGCCGUUCUCCUGGAUCC (ssRNA, 2'-OMe) [X-M4]: no binding [1].

UAUGAUAGGGACUUAGGGUGUACCACCGCCAAAGCCGCCU (ssRNA) [C5-M4A1W]: binds [5].

UAUGAUACGCACUUACGCUGUACCACCGCCAAAGCCGCCU (ssRNA) [C5-M4A1M]: no binding [4].
